In US20230265151A1, “GIP/GLP1 CO-AGONIST COMPOUNDS” (priority 2020, published 2023):
Changes are numbered by the printed parent chain.

T1: human GIP receptor (human, UniProt P48546 22-466)
T1 construct: whole, on cells; also called hGIPR; human glucose-dependent insulinotropic polypeptide receptor
T1 sequence (looked up): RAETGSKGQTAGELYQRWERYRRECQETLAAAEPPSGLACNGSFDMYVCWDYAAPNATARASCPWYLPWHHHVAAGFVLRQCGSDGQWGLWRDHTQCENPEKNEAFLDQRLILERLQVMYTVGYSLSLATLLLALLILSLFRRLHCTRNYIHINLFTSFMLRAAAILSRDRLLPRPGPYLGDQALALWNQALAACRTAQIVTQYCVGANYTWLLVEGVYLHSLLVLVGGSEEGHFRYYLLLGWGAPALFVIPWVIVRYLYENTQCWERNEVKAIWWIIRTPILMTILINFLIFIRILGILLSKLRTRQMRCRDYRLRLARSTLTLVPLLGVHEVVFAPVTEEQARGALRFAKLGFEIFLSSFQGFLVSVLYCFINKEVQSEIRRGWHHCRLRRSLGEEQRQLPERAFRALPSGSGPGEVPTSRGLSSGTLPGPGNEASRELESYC

B1: Y-Aib-EGT-αMeF(2F)-TSDY-Aib-I-αMeL-LD-Orn-QAQ-Aib-Orn-FIK((2-[2-(2-Amino-ethoxy)-ethoxy]-acetyl)2-(γ-Glu)--C10_4CP)-αMeY-LIK((2-[2-(2-Amino-ethoxy)-ethoxy]-acet … (peptide)
peptide: YXEGTXTSDYXIXLDXQAQXXFIKXLIKGGPSSGAPPPS
modifications: Aib2, αMeF(2F)6, Aib11, αMeL13, Orn16, Aib20, Orn21, K24(Z1), αMeY25, K28(Z1), C-term NH2; Z1=AEEA2-(γ-Glu)-C10_4CP (so in the source)
B2: Y-Aib-EGT-αMeF(2F)-TSDY-Aib-I-αMeL-LD-Orn-QAQ-Aib-Orn-FIK((2-[2-(2-Amino-ethoxy)-ethoxy]-acetyl)2-(γ-Glu)2-CO-(CH2)12-CO2H)-αMeY-LIK((2-[2-(2-Amino-ethoxy)-etho … (peptide)
peptide: B1 peptide
modifications: Aib2, αMeF(2F)6, Aib11, αMeL13, Orn16, Aib20, Orn21, K24(Z1), αMeY25, K28(Z1), C-term NH2; Z1=AEEA2-(γ-Glu)2-CO-(CH2)12-CO2H
B3: Y-Aib-EGT-αMeF(2F)-TSD-4Pal-Aib-I-αMeL-LD-Orn-QAQ-Aib-Orn-FIK(PEG5-(γ-Glu)-(10-(4-carboxyphenoxy)decanoyl))-αMeY-LIK(PEG5-(γ-Glu)-(10-(4-carboxyphenoxy)decanoyl … (peptide)
peptide: B1 peptide with Y10X
modifications: Aib2, αMeF(2F)6, 4Pal10, Aib11, αMeL13, Orn16, Aib20, Orn21, K24(Z1), αMeY25, K28(Z1), C-term NH2; Z1=PEG5-(γ-Glu)-(10-(4-carboxyphenoxy)decanoyl)
B4: Y-Aib-EGT-αMeF(2F)-TSD-4Pal-Aib-I-αMeL-LD-Orn-QAQ-Aib-Orn-FIK((2-[2-(2-Amino-ethoxy)-ethoxy]-acetyl)-(γ-Glu)-(10-(4-carboxyphenoxy)decanoyl))-αMeY-LIK((2-[2-(2- … (peptide)
peptide: B1 peptide with Y10X
modifications: Aib2, αMeF(2F)6, 4Pal10, Aib11, αMeL13, Orn16, Aib20, Orn21, K24(Z1), αMeY25, K28(Z1), C-term NH2; Z1=AEEA-(γ-Glu)-(10-(4-carboxyphenoxy)decanoyl)
B5: Y-Aib-EGT-αMeF(2F)-TSD-4Pal-Aib-I-αMeL-LD-Orn-QAQ-Aib-Orn-FIK((2-[2-(2-Amino-ethoxy)-ethoxy]-acetyl)-(γ-Glu)-(2-[2-(2-Amino-ethoxy)-ethoxy]-acetyl)-(γ-Glu)-CO-( … (peptide)
peptide: B1 peptide with Y10X
modifications: Aib2, αMeF(2F)6, 4Pal10, Aib11, αMeL13, Orn16, Aib20, Orn21, K24(Z1), αMeY25, K28(Z1), C-term NH2; Z1=AEEA-(γ-Glu)-AEEA-(γ-Glu)-CO-(CH2)12-CO2H
B6: Y-Aib-EGT-αMeF(2F)-TSD-4Pal-Aib-I-αMeL-LD-Orn-QAQ-Aib-Orn-FIK(PEG6-(γ-Glu)-(10-(4-carboxyphenoxy)decanoyl))-αMeY-LIK(PEG6-(γ-Glu)-(10-(4-carboxyphenoxy)decanoyl … (peptide)
peptide: B1 peptide with Y10X
modifications: Aib2, αMeF(2F)6, 4Pal10, Aib11, αMeL13, Orn16, Aib20, Orn21, K24(Z1), αMeY25, K28(Z1), C-term NH2; Z1=PEG6-(γ-Glu)-(10-(4-carboxyphenoxy)decanoyl)
B7: Y-Aib-EGT-αMeF(2F)-TSD-4Pal-Aib-I-αMeL-LD-Orn-K(((2-[2-(2-Amino-ethoxy)-ethoxy]-acetyl)-Aoc-CO-(CH2)12-CO2H)AQ-Aib-EFI-(D-Glu)-αMeY-LIK(((2-[2-(2-Amino-ethoxy)- … (peptide)
peptide: B1 peptide with Y10X, Q17K, X21E, K24X
modifications: Aib2, αMeF(2F)6, 4Pal10, Aib11, αMeL13, Orn16, K17(Z1), Aib20, D-Glu24, αMeY25, K28(Z1), C-term NH2; Z1=AEEA-Aoc-CO-(CH2)12-CO2H
B8: Y-Aib-EGT-αMeF(2F)-TSD-4Pal-Aib-I-αMeL-LD-Orn-QAQ-Aib-Orn-FIK(((2-[2-(2-Amino-ethoxy)-ethoxy]-acetyl)2--Trx-(γ-Glu)-CO-(CH2)12-CO2H)-αMeY-LIK(((2-[2-(2-Amino-et … (peptide)
peptide: B1 peptide with Y10X
modifications: Aib2, αMeF(2F)6, 4Pal10, Aib11, αMeL13, Orn16, Aib20, Orn21, K24(Z1), αMeY25, K28(Z1), C-term NH2; Z1=AEEA2-Trx-(γ-Glu)-CO-(CH2)12-CO2H
B9: Y-Aib-EGT-αMeF(2F)-TSD-4Pal-Aib-I-αMeL-LD-Orn-QAQ-Aib-EFIK((2-[2-(2-Amino-ethoxy)-ethoxy]-acetyl)3-(γ-Glu)-(10-(4-carboxyphenoxy)decanoyl)-αMeY-LIK((2-[2-(2-Ami … (peptide)
peptide: B1 peptide with Y10X, X21E
modifications: Aib2, αMeF(2F)6, 4Pal10, Aib11, αMeL13, Orn16, Aib20, K24(Z1), αMeY25, K28(Z1), C-term NH2; Z1=AEEA3-(γ-Glu)-(10-(4-carboxyphenoxy)decanoyl)
B10: Y-Aib-EGT-αMeF(2F)-TSD-4Pal-SI-αMeL-LD-Orn-K((2-[2-(2-Amino-ethoxy)-ethoxy]-acetyl)2-(γ-Glu)-CO-(CH2)14-CH3)AQ-Aib-EFI-(D-Glu)-αMeY-LIEGGPSSGAPPPSK((2-[2-(2-Ami … (peptide)
peptide: YXEGTXTSDXSIXLDXKAQXEFIXXLIEGGPSSGAPPPSK
modifications: Aib2, αMeF(2F)6, 4Pal10, αMeL13, Orn16, K17(Z1), Aib20, D-Glu24, αMeY25, K40(Z1), C-term NH2; Z1=AEEA2-(γ-Glu)-CO-(CH2)14-CH3

These binders were tested against T1, human GIP receptor (assay: SPA competition vs [125I]-GIP, hGIPR membranes).

Binder	Ki
B1	0.0264 nM
B2	0.0368 nM
B3	0.0387 nM
B4	0.0183 nM
B5	0.0296 nM
B6	0.0291 nM
B7	0.0464 nM
B8	0.0346 nM
B9	0.0261 nM
B10	0.0293 nM

The binders below were run against T2, human GLP-1 receptor (human, UniProt P43220 24-463) (assay: SPA competition vs [125I]-GLP-1, hGLP-1R membranes).
T2 construct: whole, on cells; also called hGLP-1R; human glucagon-like peptide-1 receptor
Outline: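 Competition binding in 25 mM HEPES pH 7.4, 2.5 mM CaCl₂, 1 mM MgCl₂, 0.1% bacitracin, 0.003% TWEEN-20, EDTA-free protease inhibitors. IC₅₀ from four-parameter nonlinear fit; Kᵢ given as geometric mean ± SEM, n = independent replicates on different days.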

Binder	Ki
B1	0.233 nM
B2	0.307 nM
B3	0.0847 nM
B4	0.143 nM
B5	0.268 nM
B6	0.0943 nM
B7	1.29 nM
B8	0.121 nM
B9	0.352 nM
B10	0.483 nM

Each binder was assayed against T3, human glucagon receptor (human, UniProt P47871 26-477) (assay: SPA competition vs [125I]-Gcg, hGcgR membranes).
T3 construct: whole, on cells; also called hGCGR; hGcgR
T3 sequence (P47871 26-477): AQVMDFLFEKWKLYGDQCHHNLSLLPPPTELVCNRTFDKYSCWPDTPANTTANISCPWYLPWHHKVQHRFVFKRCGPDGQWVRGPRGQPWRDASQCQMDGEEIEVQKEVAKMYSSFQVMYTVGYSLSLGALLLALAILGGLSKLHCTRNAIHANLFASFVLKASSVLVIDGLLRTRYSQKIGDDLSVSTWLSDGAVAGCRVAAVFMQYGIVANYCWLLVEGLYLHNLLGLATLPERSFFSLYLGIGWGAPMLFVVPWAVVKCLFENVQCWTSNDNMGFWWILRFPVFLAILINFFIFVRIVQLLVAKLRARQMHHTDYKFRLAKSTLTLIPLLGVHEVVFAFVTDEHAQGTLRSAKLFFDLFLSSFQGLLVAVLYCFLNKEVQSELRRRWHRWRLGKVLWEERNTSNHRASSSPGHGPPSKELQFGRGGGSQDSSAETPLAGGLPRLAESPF

Binder	Ki
B1	28.6 nM
B2	88.5 nM
B3	144 nM
B4	54.5 nM
B5	305 nM
B6	269 nM
B7	304 nM
B8	945 nM
B9	753 nM
B10	0.283 nM
